Reference: paper PMC11870023, “A facile assay for zDHHC palmitoyl transferase activation elucidates effects of mutation and modification” (Journal of Lipid Research, 2025)

Substrate: CC(C)(COP(=O)(O)OP(=O)(O)OC[C@H]1O[C@@H](n2cnc3c(N)ncnc32)[C@H](O)[C@@H]1OP(=O)(O)O)[C@@H](O)C(=O)NCCC(=O)NCCSC(=O)CCCCCCCCCCCCCCCNc1ccc([N+](=O)[O-])c2nonc12
Assay: auto-S-palmitoylation of HEK293 membranes, SDS-PAGE fluorescence normalised to tag Western blot
Format: cell-based, Homo sapiens
Details: pH 7.4, 37 °C, 2 min, labelled compound, covalent thioester at active-site Cys
Source text: auto-S-palmitoylation of HEK293 membranes, SDS-PAGE fluorescence normalised to tag Western blot on human zDHHC14 | L215S mutation within the third transmembrane segment of zDHHC14 (Fig. 4A) substantially diminished auto-S-palmitoylation

B1: human zDHHC14 (Homo sapiens; L215S) (protein)
chain: MPPGGGGPMKDCEYSQISTHSSSPMESPHKKKKIAARRKWEVFPGRNKFFCNGRIMMARQTGVFYLTLVLILVTSGLFFAFDCPYLAVKITPAIPAVAGILFFFVMGTLLRTSFSDPGVLPRATPDEAADLERQIDIANGTSSGGYRPPPRTKEVIINGQTVKLKYCFTCKIFRPPRASHCSLCDNCVERFDHHCPWVGNCVGKRNYRFFYMFISSLSFLTVFIFAFVITHVILRSQQTGFLNALKDSPASVLEAVVCFFSVWSIVGLSGFHTYLISSNQTTNEDIKGSWSNKRGKENYNPYSYGNIFTNCCVALCGPISPSLIDRRGYIQPDTPQPAAPSNGITMYGATQSQSDMCDQDQCIQSTKFVLQAAATPLLQSEPSLTSDELHLPGKPGLGTPCASLTLGPPTPPASMPNLAEATLADVMPRKDEHMGHQFLTPDEAPSPPRLLAAGSPLAHSRTMHVLGLASQDSLHEDSVRGLVKLSSV
notes: full length, His6-Myc tag kept (pCEpuro-His6-Myc-1), HEK293 membrane fraction
Km: 4.46 ± 2.66 µM
